This note sets out measurements from the DeepSol protein solubility set.

The data set is described as follows: soluble on expression in E. coli; label from the status in PepcDB or PDB records.
“MGKLIDIPIVVESGQKYKTSQGVTAIKDGIKSSGQDHERLPKPKWLRIVNHTTPAYSQVKEQVQKHRLATVCEEAKCPNISECWSHGTATIMLMGAVCTRACRFCSVDTGNPHGWLDAEEPENTAETVALMNLDYVVLTSVNRDDLPDGGANHYAKTIRAIKKRSPRTKVEALTPDFQGSERDVAVLLDSGVDVFAQNVETVERLTHPVRDNRAGYQQTLNVLAFAKKYRPDVLTKTSLMLGLGETDEEIIQTMDDLRTHHVDILTLGQYLQPTKNHLPIARYVTPETFSELRQIGLKKGFFEVASGPLVRSSYRADRVFKRDNLGLDV”: the “soluble on expression in E. coli” value is reported as “not soluble”.
The same measure for “MDIEERINLVLKKPTEEVLTVENLRHLFEIGAPLQHYIGFEISGYIHLGTGLMAGAKIADFQKAGIKTRVFLADWHSWINDKLGGDLEVIQEVALKYFKVGMEKSIEVMGGDPKKVEFVLASEILEKGDYWQTVIDISKNVTLSRVMRSITIMGRQMGEAIDFAKLIYPMMQVADIFYQGVTIAHAGMDQRKAHVIAIEVAQKLRYHPIVHEGEKLKPVAVHHHLLLGLQEPPKWPIESEEEFKEIKAQMKMSKSKPYSAVFIHDSPEEIRQKLRKAFCPAREVRYNPVLDWVEYIIFREEPTEFTVHRPAKFGGDVTYTTFEELKRDFAEGKLHPLDLKNAVAEYLINLLEPIRRYFEKHPEPLELMRSVKITR”: “soluble”; for “MGSDKIHHHHHHMIWNIDYFCNLRCKSCNAWQGKIFFPEDQIDKHLQEMKNNGIKIVSVTGGEPTLNKNVVDIIRKLKENHFFTHIATNGTNPYVLRKLYPYLDAVTISLDSNIPEEHNAYRGLKIFDTVVSNIKEAKSKVKIVTANMLVTNFNYFKVGEIADFANNELGVPLSMCFPEQDAYYFQDFQVTNDMIRQAFSYAYENYHKHVFGNMRSYYKEAVDFIDGKGSRACKAGQEIFYTDYRGKVHPCFEHVEVVLNKKPTWDIYDNKCHKCFTECFLEPSIDHTFEAASLIGKIWWFNHVKRRDIKYIETKRPKQVPS”: “not soluble”.
Next, “MAHHHHHHMAKNDIWTPLESNPDSLYLYSCKLGQSKLKFVDIYGFNNDLLDMIPQPVQAVIFLYPVNDNIVSENNTNDKHNLKENFDNVWFIKQVKIITLCNMNNILPILYVCFNSIELKNNKSIENLHHEFCGQVENRDDILDVDTHFIVFVQIEGKIIELDGRKDHPTVHCFTNGDNFLYDTGKIIQDKFIEKCKDDLRFSALAVIPNDNFDII”: “soluble”; “MGSDKIHHHHHHMNAPDTSLAGASTASTASYDSAADGYNFAYLDEQTKRMLRRALLKAVAVPGYQVPFASREMPLPFGWGTGGIQVTAAIIGRKDTLKVIDQGSDETTNAVNIRRFFARTTGVATTRRTVDATIIQTRHRIPETPLTERQILVYQVPMPEPLFRLEPRVAECRKLHALADYGLISVKLYEDIVHHGSIATTYDYPVIVNHRYLASPSPIPKFDNPKMHMNPALQLFGAGRERRIHAIPPYTPVRSLDFDDHPFEVQKWHHACALCGSTESFLDEMIVDDAGKRMFVCSDSDYCHERRGDADFDPPSRDAGKGEPA”: “not soluble”; “MSLLPVNNPPLSTGNVSFYRTTSIDNVHNNYLSEWVEWTKNSISGENRETAFTRLQLCLENSETSLDLSCLGLRSLPRLPDNLDEINVSNNQLSMLPELPRALKELNASSNQLSALPELPVSLEYINVSDNHLFALPELPASLEYINVSDNHLSVLPRLPMSLELLDAARNALEVIPDFPERDDHIIRIFWLNQNRITAIPESILGLSSDSVVNLRENQLSPRIMQTLLQQTAQPDYHGPRIYFSMSDGQQNTLHRPLADAVTAWFPENKQSDVSQIWHAFEHEEHANTFSAFLDRLSDTVSARNTSGFREQVAAWLEKLSASAELRQQSFAVAADATESCEDRVALTWNNLRKTLLVHQASEGLFDNDTGALLSLGREMFRLEILEDIARDKVRTLHFVDEIEVYLAFQTMLAEKLQLSTAVKEMRFYGVSGVTANDLRTAEAMVRSREENEFTDWFSLWGPWHAVLKRTEADRWAQAEEQKYEMLENEYPQRVADRLKASGLSGDADAEREAGAQVMRETEQQIYRQLTDEVLALRLSENGSQLHHSEGHHHHHH”: “soluble”.
The same measure for “LISPDVDIEEITTRILEEAMGLTGSEQGFVATIDPLSRTLVIHTFSSMMDCLWQGGEEGRRILFPPGQDGSYPTLWGHSLNTKCPFYTNDPAGHPSAVGVPHGHIPLRHFLSVPVMLGDEVVAQISLANPGRDYTERDLEAIGRVAKFFALAIQRMRAEESIR”: “not soluble”.
On to “MGSDKIHHHHHHMASQRGDTKLQLLRDTSLSHDGLNHTILTLNQLLHQRAPFYGEHLSATTSPTGLSFDEWSCADTYQKLIARFAIAHPSAENQTETKTENETETDKTAATSRTPAFASKSALVSKNAVPSRKDTRKALHSLWGQWYFGLLVPPMMEWIFNAPKTDVETLHWQPQSVFMQVHPSGRVAKFEFKIAKYQPITALTFKKHHGIEPLSRTNTKPSIKIDTEVHSPLSPYKPSVDKELVLQGFILNLLQSSVDRLLTLSPVPAKLYWSHLGYLIHWYLGELGLSQQQNQQLKQALFRRTTFLDGSTNPLYNSINLLIEPEQDSATPYTVARIVTSTASRSKPSPKIHCIRRTCCLRYQLANTGQCHDCPLLSRAKVNVNATKQT”, for which the “soluble on expression in E. coli” value is recorded as “not soluble”.
The same measure for “MGSDKIHHHHHHMQIYLANPRGFCAGVDRAIAIVNEALLRFEPPIYVRHEVVHNKFVVSDLANRGAVFVEELHEVPDGSIVIFSAHGVSKAVEDEAERRDLTVFDATCPLVTKVHIEVAKFAQDGMDAVLIGHAGHPEVEGTMGRFNHRHGGRIHLVENESDVEALSVQDAERLAFVTQTTLSMDDTARVIDALREKFPHIQGPRKDDICYATQNRQDAVKHLASRCEVVLVVGSPNSSNSNRLRELAERMNCRAYLIDNATEMDINWFDGIQSVGVTAGASAPEVLIQEVLQQLQDWGGDLPSELSGIEENVTFSLPKALRIPMTQVGK”: “not soluble”; for “AHHHHHHGSKARIIYRASFDAAHAVKIEEWEELHGHTFSLEVVVEGEIKKGYVMDFLKLKKVVDGVVKELDHRNLNKIMDNPTTENIALWISERIRKNLPGDVKLKRLSLWEGNEFGVELEW”: “soluble”; for “MGSSHHHHHHSSGLVPRGSHMQIHTLTIRHGRSDPETVRSLLGQDQVLVVDYDAIHHHVINTAEYTYLSHMFDIIVLNLSGKLNDIIDTIMAGAAMVVIDPSVQEKRLREFFDITENIAMPYRGDGHSEAFSQLGGQYFVTDREIGYPFKLAYSTTDISGDRYIRVLDFPQDISDMIFERA”: “soluble”.
As for “MNTNVTTNKSVQAAKNTGRVKPQKLADIILAQLEGMIIEGSLQPGEKLLPERELALQFEVSRPSLREAIQKLEAKGLVTRKQGGGTFVCNNLLSGFSDPLFELMSNNNESQFDLLEFRHGIEGMASYYAAMRGTPADFEQIQAKHNEIGNSQLEDDFRGEAEAVVEFHLAICAASHNAVILQLARSMSSLLADNIAQNLTVLAKRPDIFSKITDYRKRLLDAILSGQPQKAWGASHRHLAFIEEVLLKSTQENSRMERSMRRM”, the “soluble on expression in E. coli” value is recorded as “not soluble”.
The same measure for “MSHLNYNHLYYFWMVCKQGSVTKAADALFLTPQTVTGQIKALEDRLDGKLTKRNGRSIEPTELGQLVFKYADRMFGLSYEMLDIVNYSQRSNLLFDVGVADALSKRLVSKILLTSVPGDNRIHLRCFESTHEMLLEQLAQHKLDMILSDCPVDSSQSPGLFSKKLGESRMSFFSFGDVDFAPFPAVLQSKKLLVPGSRTAMGRKVRQWFDRQGLQPHILGEFDDSALMKAFAIYHSDAVFMAPSFYVSEVDAESSLKLIGHVDEIKEEYYVIFAERMIQHPAVKNVCDADFTNLFL”: “not soluble”.
On to “MSNGRAVNGFLLDITGVLYNSIYKSDGVAVPKSAEAVNFLYQHSKVKFLSNAKGNSNRNVARRLQRLGINVREEDVITPAPVVAQYCRENKLRPHLFVRDDVLEYFDGIDTSSPNCVVMGEVEEGFSFDRINRAFRILIDMPKPLLITMGNGKFFQRVDGPCIDVGAFAAALKFSTNCEVLNIGKPSRFYFEQGMNALGMKPEEIVMVGDDLMSDVGGAQACGMRGVQVRTGKWRPDFEKMPVTPDLTADCLYDAVKLIADNGFRL”, for which the “soluble on expression in E. coli” value was “not soluble”.
The same measure for “MGSDKIHHHHHHVTHKDMEYALDRVLAGSEKRSRSLVEEEREVVAYHEAGHALVGWMLEHTDALLKYEISIFRQKFRFPLKPLKSRRKVHFLREFLCNFPQRILENFKKIQKSYSKIQIFHQKFTQNIKKLKFPVLGEFLKFPANNSSEFLKNLKNFIKKIFFFEIFGPKLPQKVTIIPRTSAALGFAQYSPRDKHLFSKDELFDRMCMMLGGRCAENLKFGRATSGAQDDLQKVTKSAYAQVKLYGMSSIVGPLSFPNTEGFQIKPYSKKFASTFDQEATLIVAKANEATTDLIKNNMDKLETIAQALLKREVLNYEDVKKL”: “not soluble”.
The same measure for “MGSDKIHHHHHHVSQLSPWQHYQQDLKRDDFSHDLAQEQAVTALQRVYEELIAATKPASGIAALLKAVTGKNKRASVQGLYLWGGVGRGKTYLMDTFFDALPTEDKLRAHFHRFMHQLHHDLGELKGVQDPLLTIAKKMAKQYQVICFDEFFVSDITDAMLLGTLFQALFKEGVVLVATSNIIPDELYKNGLQRARFLPAIALINQHCQILNVDSGIDYRLRTLEQAEIYHHPLDAQADVNLLQYFKQLAPESEVFTHALDIDGRKIAIRQQSQGVLLVDFRALCDGPRSQRDYMEIARLYHTVLLSGLVQMGAQQTGDDIARRFLAVVDEFYERNVKLIISAQVSLEQIYTQGQLDFEFRRCRSRLIEMQSHDYLALEHLP”: “not soluble”.
Regarding “MGSDKIHHHHHHMSFDRPEIYSAPVLQGESPNDDDNTEIIKSFKNFILEFRLDSQFIYRDQLRNNILVKNYSLTVNMEHLIGYNEDIYKKLSDEPSDIIPLFETAITQVAKRISILSRAQSANNNDKDPENTSMDTDSLLLNSLPTFQLILNSNANQIPLRDLDSEHVSKIVRLSGIIISTSVLSSRATYLSIMCRNCRHTTSITINNFNSITGNTVSLPRSCLSTIESESSMANESNIGDESTKKNCGPDPYIIIHESSKFIDQQFLKLQEIPELVPVGEMPRNLTMTCDRYLTNKVIPGTRVTIVGIYSIYNSKNGAGSGRSGGGNGGSGVAIRTPYIKILGIQSDVETSSIWNSVTMFTEEEEEEFLQLSRNPKLYEILTNSIAPSIFGNEDIKKAIVCLLMGGSKKILPDGMRLRGDINVLLLGDPGTAKSQLLKFVEKVSPIAVYTSGKGSSAAGLTASVQRDPMTREFYLEGGAMVLADGGVVCIDEFDKMRDEDRVAIHEAMEQQTISIAKAGITTVLNSRTSVLAAANPIYGRYDDLKSPGDNIDFQTTILSRFDMIFIVKDDHNEERDISIANHVINIHTGNANAMQNQQEENGSEISIEKMKRYITYCRLKCAPRLSPQAAEKLSSNFVTIRKQLLINELESTERSSIPITIRQLEAIIRITESLAKLELSPIAQERHVDEAIRLFQASTMDAASQDPIGGLNQASGTSLSEIRRFEQELKRRLPIGWSTSYQTLRREFVDTHRFSQLALDKALYALEKHETIQLRHQGQNIYRSGV”, the “soluble on expression in E. coli” value was “not soluble”.
The same measure for “GPLGSMTTKQTVSLFIWLPESKQKTLFISTKNHTQFELNNIIFDVTLSTELPDKEPNAIITKRTHPVGKMADEMRKYEKDHPKVLFLESSAIHDMMSSREEINALLIKNNIPIPNSFSVKSKEEVIQLLQSKQLILPFIVKPENAQGTFNAHQMKIVLEQEGIDDIHFPCLCQHYINHNNKIVKVFCIGNTLKWQTRTSLPNVHRCGIKSVDFNNQHLEDILSWPEGVIDKQDIIENSANRFGSKILEDPILLNLTSEAEMRDLAYKVRCALGVQLCGIDFIKENEQGNPLVVDVNVFPSYGGKVDFDWFVEKVALCYTEVAKI”: “soluble”; for “LVKVKREIIRMDHPAIRPEAGRAPAVDAATLRRWLAQGRDDQGRELVMLDTRNAFEVEVGTFRGALDWRIERFTQFPQAVRDNQAALAGKTVVSFCTGGIRCEKAAIYMAEAGIEHVYQLEGGILKYFEETDGAGFDGACFVFDERVALDAALAPQ”: “not soluble”.
